This passage reports mean FRET (percent) results from article PMC2944810.

The target in the assay is GFP:2B (Grapevine fanleaf virus movement protein 2B fused to EGFP) (Grapevine fanleaf virus). In words: FRET or BRET; FRET-FLIM in living N. benthamiana leaf epidermal cells after transient co-expression by agro-infiltration; GFP fusion of the movement protein as donor, RFP fusion as acceptor; fluorescence lifetime of the donor measured at tubules or plasmodesmata. (Bioluminescence resonance energy transfer reports proximity on the nanometre scale.)

The substance “GFP:2B (Grapevine fanleaf virus movement protein 2B fused to EGFP) (natural protein)” returned a mean FRET (percent) of 24%.
